Measurements: US7034002

target: Angiotensin converting enzyme (rabbit lung acetone powder, Sigma; supernatant of the extract) (rabbit) (UniProt P12822); assay: cell-based or functional assay
Sequence of UniProt P12822 (P12822 34-1310 limits assumed): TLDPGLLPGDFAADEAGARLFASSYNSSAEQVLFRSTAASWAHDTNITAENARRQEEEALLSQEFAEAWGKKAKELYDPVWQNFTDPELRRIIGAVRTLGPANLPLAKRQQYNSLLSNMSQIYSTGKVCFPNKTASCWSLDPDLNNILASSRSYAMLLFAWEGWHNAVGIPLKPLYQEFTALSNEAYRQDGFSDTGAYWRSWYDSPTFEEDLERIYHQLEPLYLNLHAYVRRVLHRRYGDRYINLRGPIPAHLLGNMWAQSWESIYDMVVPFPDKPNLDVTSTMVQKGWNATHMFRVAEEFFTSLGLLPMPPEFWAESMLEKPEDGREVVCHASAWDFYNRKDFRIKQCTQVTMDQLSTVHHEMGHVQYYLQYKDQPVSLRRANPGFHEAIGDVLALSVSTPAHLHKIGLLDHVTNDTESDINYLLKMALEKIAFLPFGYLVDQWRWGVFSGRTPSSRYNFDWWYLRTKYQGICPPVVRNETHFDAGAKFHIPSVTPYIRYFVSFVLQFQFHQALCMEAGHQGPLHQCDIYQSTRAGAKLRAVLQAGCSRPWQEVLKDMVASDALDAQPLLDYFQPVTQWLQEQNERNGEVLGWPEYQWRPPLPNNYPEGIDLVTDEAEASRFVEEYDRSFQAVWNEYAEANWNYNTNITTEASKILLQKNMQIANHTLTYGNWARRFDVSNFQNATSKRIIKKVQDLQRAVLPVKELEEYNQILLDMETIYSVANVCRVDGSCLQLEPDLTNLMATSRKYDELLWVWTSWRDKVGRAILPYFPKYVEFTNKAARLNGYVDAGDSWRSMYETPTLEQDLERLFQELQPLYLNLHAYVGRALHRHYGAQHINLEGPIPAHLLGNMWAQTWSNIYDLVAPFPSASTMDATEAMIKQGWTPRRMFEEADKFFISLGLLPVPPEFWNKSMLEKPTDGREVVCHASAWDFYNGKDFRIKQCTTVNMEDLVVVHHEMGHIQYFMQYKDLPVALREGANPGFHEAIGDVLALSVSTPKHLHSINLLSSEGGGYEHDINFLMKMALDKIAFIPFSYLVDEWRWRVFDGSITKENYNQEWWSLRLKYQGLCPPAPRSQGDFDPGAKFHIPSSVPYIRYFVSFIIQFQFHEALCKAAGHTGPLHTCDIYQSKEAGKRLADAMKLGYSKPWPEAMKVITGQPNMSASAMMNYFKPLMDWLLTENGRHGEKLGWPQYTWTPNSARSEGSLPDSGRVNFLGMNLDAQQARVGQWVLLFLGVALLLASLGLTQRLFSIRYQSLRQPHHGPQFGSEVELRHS

IC50 (angiotensin converting enzyme inhibitory activity, Bz-Gly-His-Leu substrate, OD228 of hippuric acid) | Substance
80 µg/mL | Fraction E-1: concentrated thermolysin hydrolysate of the hot-water-extracted residue of dried bonito
300 µg/mL | Fraction E-2: membrane-concentrated fraction of E-1
30 µg/mL | Fraction E-3: membrane-penetrating fraction of E-1
200 µg/mL | Fraction E-4: ethanol precipitate of E-1
40 µg/mL | Fraction E-5: ethanol-soluble fraction of E-1
110 µg/mL | Fraction E-6: concentrated thermolysin hydrolysate of homogenized dried bonito
310 µg/mL | Fraction E-7: membrane-concentrated fraction of E-6
35 µg/mL | Fraction E-8: membrane-penetrating fraction of E-6
200 µg/mL | Fraction E-9: ethanol precipitate of E-6
50 µg/mL | Fraction E-10: ethanol-soluble fraction of E-6
